± gives the uncertainty stated by the source.
Experiment: protein stability index of a GFP-peptide fusion (yeast GPS) (PSI 1-4); higher = more stable; sorted into four equal gates, so the index is relative within each strain
Conditions: ubr1∆
Summary of the method: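 The protein stability index combines read frequencies across sorting gates, each weighted by its gate number and then summed. To obtain those frequencies, a pooled yeast library of GFP fusions to tiled 17-residue yeast protein peptides, on a plasmid also expressing Cherry, was grown to mid-log phase in leucine-free medium. The cells were sorted into four equal gates by GFP/Cherry ratio before plasmid amplification by PCR and Illumina sequencing.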

Sequence | protein stability index
NYDTCGGESAYFFQLQI [RPC11] | 2.94 ± 0.14
NYFVDTDLKKIIKANQL [RET1] | 2.53 ± 0.036
NYIPGNPLVTPASIVPE [COB] | 2.56 ± 0.086
NYIYAGYENGMLAQWDL [RPN14] | 3.14 ± 0.078
NYKGLPKKYKENNTDSA [SMC1] | 3.36 ± 0.061
NYNDLIVNYEDLATTQA [BRN1] | 3.27 ± 0.061
PAGQATQKRTHVLKKNP [RPL4A] | 2.74 ± 0.14
PAITIEKLKQFSWISVV [SIR3] | 1.13 ± 0.035
PAKVEDVQKSSDSSSED [YLR335W/NUP2] | 1.65 ± 0.053
PALIRPGRIDRKILFEN [RPT2] | 2.58 ± 0.17
PAVKQWDLLPEPIRFLP [SWI1] | 2.53 ± 0.072
PDAKIQVRRDIPSAAFN [YMR129W/POM152] | 3.24 ± 0.088
PDELIKAGVEAISQSLR [PRE5] | 1.49 ± 0.051
PEESKGSFKYITARSAF [SWP82] | 3.15 ± 0.06
PEESKPINLQNGEEDEV [YLR335W/NUP2] | 3.1 ± 0.062
PEGTLSGGSRNTSESLL [SMC2] | 3.28 ± 0.25
PEIPLVVSTDLESIQKT [RPL4A] | 2.81 ± 0.062
PEKKEMIQEVIVEEDLE [FAS2] | 3.36 ± 0.062
PEKTSTELVDGRENFVY [SIR3] | 3 ± 0.088
PEMIKRSLLLSRVRADD [RRP43] | 2.92 ± 0.16
PENTAMFNPLHESYCLP [YMR129W/POM152] | 2.6 ± 0.03
PESQGQHEQQKQQEQLE [YMR153W/NUP53] | 3.26 ± 0.072
PEYEKAMQYVCGDSIIC [SMC1] | 1.89 ± 0.1
PFDNSTEEKCKNFIESE [YJL039C/NUP192] | 3.32 ± 0.1
PFETFDHASIRRGYQVY [CYT1] | 2.9 ± 0.032

Sequence | protein stability index
PFIKSESKPFSSDALSK [SIR4] | 3.13 ± 0.061
PFQLDVADMLTPEYAAE [UBP6] | 2.77 ± 0.16
PFREFLQVLIDQLDSEA [ECM29] | 3.01 ± 0.065
PGFQLPNRITLTDHRKE [SRB8] | 3.22 ± 0.067
PGKGILTTAREHHSSVK [FAS2] | 3.11 ± 0.067
PHGFPSRMTVGKMIELI [RET1] | 2.46 ± 0.092
PHGISVFLSNLVETCLN [BRR2] | 1.61 ± 0.03
PHLPFSKSENPVLSTIA [SWI3] | 2.05 ± 0.028
PIAAPKKPRKPRQTKKA [PGD1] | 3.09 ± 0.097
PIAQPATDVEARAVQDN [RPL13A] | 1.69 ± 0.2
PILVTLVSDSEIIDLNL [POP6] | 2.74 ± 0.054
PIMQTQMPLNSNGGNNM [SNF2] | 2.62 ± 0.045
PINLKFLQGESPFSITF [YMR129W/POM152] | 2.32 ± 0.071
PKELVPSHEKLKESYSQ [CDC53] | 2.81 ± 0.073
PKLLDALNKISKYYPGV [SNU114] | 2.88 ± 0.044
PKNLLKKFIEISDVKIQ [PRP8] | 2.26 ± 0.05
PKNSSSPVQIAFNRFMA [SSN8] | 1.57 ± 0.054
PKSTAPIFSFGKQEENG [YOR098C/NUP1] | 2.38 ± 0.043
PLAKKQTVRLIKDLQRA [SIR2] | 2.97 ± 0.062
PLGILHIPICVTFSFFN [RRP45] | 1.12 ± 0.045
PLLDIVLKADRSWNEPS [YML103C/NUP188] | 3.12 ± 0.11
PLLRKVVDRESDIPKTT [PRE4] | 2.79 ± 0.067
PLRDNGLLDESPNRLRV [YML031W/NDC1] | 3.39 ± 0.074
PLVGKPKTELTKGDSTP [YAR002W/NUP60] | 2.83 ± 0.11
PLVYRHELITNIGETAG [RPB9] | 3.02 ± 0.036

Sequence | protein stability index
PMEVMGLMLGEFVDDYT [RPN11] | 3.08 ± 0.074
PNERKAKQAKIRAGEFD [SNF2] | 3.5 ± 0.14
PNETSEIAQANSRNAIR [RPL19A] | 3.05 ± 0.13
PNFDWDLCSSVLSQFER [ROX3] | 2.59 ± 0.067
PNFFLTLISENWWHSEF [BRR2] | 2.85 ± 0.25
PNFNVEIMQQKFPATNV [ECM29] | 2.86 ± 0.17
PNHNSPVVINLDAKNKV [RPO31] | 3.03 ± 0.24
PNIHQNLLPKKSAKTAK [HTA2] | 3 ± 0.14
PNINTWQQVTALAQQKL [GAL11] | 2.08 ± 0.054
PNLNMKYRKRQLVTREA [FAS2] | 3.05 ± 0.081
PNNASSHISASASPHLA [SNF2] | 2.88 ± 0.039
PNNETSVLSSKPGSKPE [SIR3] | 2.96 ± 0.064
PNRITLTDHRKETWLHE [SRB8] | 3.22 ± 0.068
PNVDLVTALEVLSLGRP [RGR1] | 2.21 ± 0.058
PPEEFSNTIDELSTDII [SRB7] | 3.05 ± 0.06
PPPPPPSNFEINAEEIV [PRP8] | 2.9 ± 0.038
PPTDTNVEESVSKADIL [POP5] | 3.05 ± 0.095
PQAVTITSIMDDLALPY [ITC1] | 3.02 ± 0.046
PQDYVLERVKRIMEKSV [YML031W/NDC1] | 2.12 ± 0.041
PQKSSSKGFVFNSVQKK [YAR002W/NUP60] | 1.18 ± 0.13
PQMQCALQNLSQLPITP [YGL172W/NUP49] | 2.23 ± 0.068
PQNEKPPAYALLGSCQT [RPC25] | 2.45 ± 0.13
PQQQQQHLQFNGSSDAS [YDL088C/ASM4] | 2.27 ± 0.03
